Reference: the supplement of paper PMC9170038

Test system: MS2 coat protein
Assay: apparent KD of MS2 coat protein; designed switch direction (-1 OFF switch, 1 ON switch): -1; higher = weaker reporter binding
Procedure, shortened: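 An oligonucleotide input, 200 uM small-molecule ligand, or no input was present during titration of SNAP-549-labelled MS2 coat protein, which was doubled from 0.7 or 1.5 nM to 3 µM. Designed RNA switches had been transcribed on Illumina chips by stalled E. coli RNA polymerase. Apparent KD per design is the median over clusters of curves fitted to normalised cluster fluorescence.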

[1] = Eterna round: R95, input ligand: FMN 200 uM
[2] = Eterna round: R95, input ligand: microRNA oligo, concentration not stated
[3] = Eterna round: R95, input ligand: none
[4] = input ligand: microRNA oligo, concentration not stated

Sequence | apparent KD of MS2 coat protein (input ligand: FMN 200 uM) [nM] | apparent KD of MS2 coat protein (input ligand: none) [nM] | apparent KD of MS2 coat protein [1] [nM] | apparent KD of MS2 coat protein [2] [nM] | apparent KD of MS2 coat protein [3] [nM] | apparent KD of MS2 coat protein [4] [nM]
AUAAUGUAAGGAUAUCAGUCGUUAAUAAUUUAAUAAUCGACUGAGAAGGUACAUGAGGAUCACCCAUGUGAUCA [E4/8-B1] (Eterna round: R97, puzzle: Exclusion 4) | 350 | 930 | – | – | – | –
AAUAACAAGCAAGAUCCUAACAUGAGGAUCACCCAUGUGCUCGUCUUAUAAAGUACUAUCACGAAAGUGAUAGUACA [Sensor 3, v1 - 45] (puzzle: Sensor v3, turn-off variant 1) | – | – | 470 | 306 | 420 | –
CGUGGCCGGUGAGGAUAUUGAUGACAUGAGGAUCACCCAUGUGUAUCCUCUCGAAAUACCGUGAUCAAGAAGGCAUGGUGCCAC [Ritibe] (Eterna round: R96, puzzle: Exclusion NG 2) | 68.5 | 14 | – | – | – | 12
UAAUUAAGUGUGAGGAUAUGCUGGUCCUUGGAUCAGCAGAAGGCACAUGAGGAUCACCCAUGUAAUAUAUAUAU [Mat - Exclusion 4 - JL Mod - D53] (puzzle: Brourd's mod of Exclusion 4) | – | – | 361 | 108 | 104 | –
AAAAGGUGAGGAUAUUCAAGGAAAGACAUGAGGAUCACCCAUGUAAGAAAGGAAAAGGGAGGAGAAGGUGUGAAAA [salish99_ex5_r4_136] (Eterna round: R97, puzzle: Exclusion 5) | 62.1 | 60.2 | – | – | – | –
GGAGGACGAGCAGGAUAUUUUUACAUGAGGAUCACCCAUGUGUACUCAGGGUAAUCCUCCGCCGAAAAGAAGGGUUCGGAAGAA [JL ViennaUCT Socedi mod 4] (Eterna round: R96, puzzle: Exclusion NG 2) | 124 | 63.2 | – | – | – | 41.6
UUUGUUGUUGUGAGGAUAUCGUUGAUUUUUUGAAACGAGAAGGCACAUGAGGAUCACCCAUGUUUGUUGUUGGU [JR_BMOE4_Sub058] (puzzle: Brourd's mod of Exclusion 4) | – | – | – | 58.8 | – | –
UUUAAUUUAAUUAAGAUCACAUGAGGAUCACCCAUGUAUAUAUAGGAUAUCAGCUCGUUUAGAGCUGAGAAGGAUAUAUACAUA [ExNG3/4-A2] (Eterna round: R96, puzzle: Exclusion NG 3) | 433 | 58.2 | – | – | – | 40.1
UCGUGGUAACUCAGCAGUUUCCUGAGCGGAGGAACUUUGACAUGAGGAUCACCCAUGUUGCUUUUUGCUCAUCUUAA [JR_SV3TOV2_Sub042] (puzzle: Sensor v3, turn-off variant 2) | – | – | 20.9 | 40.3 | 16.1 | –
UCCGAACAUGAGGAUCACCCAUGUCAGGAUAUUCGGUUACGUGACAAAUAGUACUAACGAAGAAGGGACAUGCU [Eternabot (L2) Solution 26] (Eterna round: R97, puzzle: Exclusion 1) | 79.1 | 27.7 | – | – | – | –
GAAGAAGAGAGAAUAGAAAACAUGAGGAUCACCCAUGUGAGAAGAUGAGGGUGUAGCAGGCUUUUUGCUCGUCUUAU (puzzle: Sensor v3, turn-off variant 1) | – | – | 32.5 | 119 | 31.2 | –
CUUCGUAUAGAGGAUAUAGGAUACUGCGGUGUCCUAGAAGGCUGUACAUGAGGAUCACCCAUGUACUUCAGAUC [Exclusion 6 - B - 14:c] (puzzle: Exclusion 6) | – | – | – | 12 | – | –
GGGAUGUCAGGAUAUCCAAAAGUCUGCCAAUACAGCAGACAGGAGAAGGGACAUGAGGAUCACCCAUGUAAAGA [Atonis] (puzzle: Exclusion 4) | – | – | – | 33.5 | – | –
GCUCCAGGAGGAUAUGCAUUCGAAAACAUGAGGAUCACCCAUGUAGGUGUCCUCGUGCGAGCAGAAGGCCUAAAAC [Rebebiso] (Eterna round: R97, puzzle: Exclusion 5) | 145 | 208 | – | – | – | –
AAGACACAUGAGGAUCACCCAUGUGAGGAUAUUCGAUGCUGAGCGUAAGCUUAGUAUCGGAGAAGGCACAAAGG [Salishxclusion 7 - Jieux - Exclusion 1] (Eterna round: R97, puzzle: Exclusion 1) | 119 | 39.8 | – | – | – | –
ACUCAACAGUAGGAUAUCAUCAAACUAUUGUGAUGAGAAGGACUGACAUGAGGAUCACCCAUGUUAACGUGAUG [Mod of Brourd 2 - Jieux - Exclusion 6] (Eterna round: R97, puzzle: Exclusion 6) | 32.1 | 21.5 | – | – | – | –
AGCUGUGGCCGAGGAUAUCUAUCCCAAAUAACCGAAAUAUAAUCGGACAUGAGGAUCACCCAUGUAGAGAAGGCGGUCUCAGCA [Eli eng2 - 088] (Eterna round: R96, puzzle: Exclusion NG 2) | – | – | – | – | – | 20.4
AGAGUGUGAGGAUAUAUGGUGAAGAUGAAGAAAGAGAAGGAGUAGAAGGUACAUGAGGAUCACCCAUGUUGAGG [JR_Exclu4_Sub071] (puzzle: Exclusion 4) | – | – | 44.8 | 47.8 | 45.5 | –

Sequence | apparent KD of MS2 coat protein (input ligand: FMN 200 uM) [nM] | apparent KD of MS2 coat protein (input ligand: none) [nM] | apparent KD of MS2 coat protein [1] [nM] | apparent KD of MS2 coat protein [2] [nM] | apparent KD of MS2 coat protein [3] [nM] | apparent KD of MS2 coat protein [4] [nM]
AAAGUAGGAGGAUAUGGAUAUAGUAACAUGAGGAUCACCCAUGUUCUUGGUGUUCGUUACCCAGAAGGCCUGACAC [Eternabot (L1) Solution 64] (Eterna round: R97, puzzle: Exclusion 5) | 184 | 91 | – | – | – | –
AAUAACAGAGGAUAUACUGUUUUAUGUGUUUGUUAUUUUGAACAUGAGGAUCACCCAUGUAGAAGGCUGAAUAA [JMF 23] (Eterna round: R96, puzzle: Exclusion 2) | 23.9 | 25.3 | – | – | – | 18.8
GUAAUUAUAUAGGAUAUCGAACUUAUUAUUUAACGAGAAGGAUGAACAUGAGGAUCACCCAUGUGGUAUCAUGG [JL-ex6-3.06] (puzzle: Exclusion 6) | – | – | – | 175 | – | –
UGAAAACAUGAGGAUCACCCAUGUAAGGAUAUGCAAAAGGAUAUAGAAGGAAAAAAAAGCAGAAGGUACAAAGG [salish99-ex1_r3_095] (puzzle: Exclusion 1) | – | – | 99.4 | 86.6 | 60.3 | –
CACCUGAACACAGGAUAUCCUACAUGAGGAUCACCCAUGUAAUAAAUGAGAAUUUCGAAUGUAAUGGAGAAGGGUGGAUAAGGC [Ostracism 89 - Jieux - Exclusion NG 2] (Eterna round: R96, puzzle: Exclusion NG 2) | 137 | 97.2 | – | – | – | 81.2
UUUAAUUUUUUUUUUUUACAAGCUUUUUGCUCGUCUUAUACAUGAGGAUCACCCAUGUGGGUAGAAAAUAAAUUAUC [JMF 91] (puzzle: Sensor v3, turn-off variant 2) | – | – | 44.1 | 65.2 | 48.7 | –
UUGUAACAUGAGGAUCACCCAUGUGAGGAUAUGGUUAAGUAAUGUAAUGUAAAGUAAUCCAGAAGGCACAAGUU [1st #23] (Eterna round: R97, puzzle: Exclusion 1) | 70.3 | 78.3 | – | – | – | –
AUCAUGAUAGGAUAUACAUGAGGAUCACCCAUGUCCCACCCGUUACUUCUGGCCCUUUGUAGAAGGAUCGUCAA [Exy#21] (Eterna round: R97, puzzle: Exclusion 3) | 22.2 | 26.8 | – | – | – | –
CUUGCGGAUAAAGGAUAUUGCGGUGACCGGCUCGGCGUACCGAGCCUACAUGAGGAUCACCCAUGUAAGAAGGUUGUCGCUGGU [JL ViennaUCT Qudice mod 3] (Eterna round: R96, puzzle: Exclusion NG 2) | 12.9 | 14.1 | – | – | – | 8.45
GUAGAGUCAGGAUAUACGAGAUCGAAAGAUCGGCGGUCCUUACAUGAGGAUCACCCAUGUAGAAGGGACUCUAC [Omei mod 6 to Eli's favorate candidate (ch.parushev)] (Eterna round: R97, puzzle: Exclusion 2) | 258 | 71.3 | – | – | – | –
AUUUUGUCAGGAUAUGAGUAGUAGGAUGAGAGUGCUACUACUUAGAAGGGACAUGAGGAUCACCCAUGUCUUCC [Bring Us a Shrubbery-06] (puzzle: Exclusion 4) | – | – | – | 13.8 | – | –
AUGUUAUUCUGAGGAUAUUGUUUAUUCUUCUCACAUGAGGAUCACCCAUGUUUCCGUGUUUACCGCAAGAAGGCAGUUUUGUUU [JR_ExcNG2_Sub027] (Eterna round: R96, puzzle: Exclusion NG 2) | – | – | – | – | – | 22.1
AGCUUUUUGUUUUUGGGUGACAUGAGGAUCACCCAUGUCUUAUGGGCCCAGUAGUAGUAAGAUAGAAGGGACCCACG [-20.8, -41.27, a 31%] (Eterna round: R97, puzzle: Sensor, turn-off variant 1) | 639 | 731 | – | – | – | –
AAAAUUGGUGAGGAUAUGCAGAUGCGCAAUGUCGCAGAAGGCACCACAUGAGGAUCACCCAUGUGUCCUCUAAA [EX6 A.19] (Eterna round: R97, puzzle: Exclusion 6) | 34 | 19.8 | – | – | – | –
CGUCUGUAAGGAUAUGGUUACAUAGACAUGAGGAUCACCCAUGUUACGUGGGACUAGUGAUUAGAAGGUACGAACG [EX5 #67] (Eterna round: R97, puzzle: Exclusion 5) | 54.7 | 51.2 | – | – | – | –
GGUGCGUUUGUGAGGAUAUGCUGGUCCUUGGAUCAGCAGAAGGCACAUGAGGAUCACCCAUGUGGUGUCGUUCC [salish99_Bmod_Ex4_037] (puzzle: Brourd's mod of Exclusion 4) | – | – | – | 137 | – | –
GAAACGCGAGGAUAUACAGACGAGUCCAUUACGUGUCUCGGACUUGAGGAUCACCCAAGUAGAAGGCGUCUCAG [salish99_ex2_r4_631] (Eterna round: R97, puzzle: Exclusion 2) | 24.8 | 27.6 | – | – | – | –
